Source: US12065471B2, “B*44 restricted peptides for use in immunotherapy against cancers and related methods” (Immatics Biotechnologies GmbH, priority 2018, dated 2024)

Target: HLA-B*44:05 (Homo sapiens, UniProt P01889, A223V/A65T/A93T/A95T/D201E/D98Y/E176V/E187L/E204Q/E69K/G107R/H137Y/K202T/L105A/L119I/N104T/N87E/Q56L/Q94N/R106L/R155S/R180D/S101N/S121R/S35A/S48T/T118I/V36M/W191S/Y91S)
Experiment: MHC binding assay (UV-ligand exchange, β2m ELISA, peptide exchange yield)
Settings: binding to HLA-B*44:05
In short: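 Binding is read as exchange yield, i.e. stabilized complex remaining after UV cleavage of a photolabile ligand in the presence of the candidate peptide. Streptavidin-captured monomers (100-fold dilution) are probed with HRP-anti-β2m, 1h at 37° C, TMB, A450. Standard curve: HLA-A*02:01/MLA-001 monomers at 15-500 ng/ml.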

Peptide exchange (MHC class I binding score, peptide exchange yield)	Substance
++++ (>75% = ++++)	249 (YEMAIYKKY; listed as Homo sapiens) [compound 249]
+++ (>50 = +++)	250 (AELDHLASL; listed as Homo sapiens) [compound 250]
+ (>10% = +)	251 (DESADSEPHKY; listed as Homo sapiens) [compound 251]
++ (>20% = ++)	252 (EEFIGKIGI; listed as Homo sapiens) [compound 252]
+++ (>50 = +++)	253 (QEILHGAVRF; listed as Homo sapiens) [compound 253]
+++ (>50 = +++)	254 (QEVAGYVLI; listed as Homo sapiens) [compound 254]
+ (>10% = +)	255 (KQWEYNEKLAF; listed as Homo sapiens) [compound 255]
++ (>20% = ++)	256 (RLLPGKVVW; listed as Homo sapiens) [compound 256]
++++ (>75% = ++++)	258 (IEVSSPITL; listed as Homo sapiens) [compound 258]
++ (>20% = ++)	259 (IEVSSPITLQAL; listed as Homo sapiens) [compound 259]
+++ (>50 = +++)	260 (VELMFPLLL; listed as Homo sapiens) [compound 260]
+++ (>50 = +++)	261 (QEWDPQKTEKY; listed as Homo sapiens) [compound 261]
++ (>20% = ++)	262 (YENILNAI; listed as Homo sapiens) [compound 262]
+++ (>50 = +++)	263 (AEQLRGFNA; listed as Homo sapiens) [compound 263]
+++ (>50 = +++)	264 (RELIKAIGL; listed as Homo sapiens) [compound 264]
++ (>20% = ++)	265 (EDNLIHKF; listed as Homo sapiens) [compound 265]
+++ (>50 = +++)	266 (EEEDRDGHTW; listed as Homo sapiens) [compound 266]
++ (>20% = ++)	267 (VELEVPQL; listed as Homo sapiens) [compound 267]
+ (>10% = +)	268 (EDLAVHLY; listed as Homo sapiens) [compound 268]
++++ (>75% = ++++)	269 (SEDLAVHL; listed as Homo sapiens) [compound 269]
+++ (>50 = +++)	271 (REDLVGPEV; listed as Homo sapiens) [compound 271]
+++ (>50 = +++)	272 (SEQNIQRANLF; listed as Homo sapiens) [compound 272]
+++ (>50 = +++)	273 (TEFELLHQV; listed as Homo sapiens) [compound 273]

Peptide exchange (MHC class I binding score, peptide exchange yield)	Substance
++ (>20% = ++)	274 (DEIDKLTGY; listed as Homo sapiens) [compound 274]
+++ (>50 = +++)	275 (GEQPPEGQW; listed as Homo sapiens) [compound 275]
++ (>20% = ++)	276 (SEYQDGKEF; listed as Homo sapiens) [compound 276]
+++ (>50 = +++)	277 (VEFPATRSL; listed as Homo sapiens) [compound 277]
+ (>10% = +)	278 (DQVTVFLHF; listed as Homo sapiens) [compound 278]
+++ (>50 = +++)	279 (GEPVTQPGSLL; listed as Homo sapiens) [compound 279]
++ (>20% = ++)	280 (AAEPLVGQRW; listed as Homo sapiens) [compound 280]
+ (>10% = +)	281 (HEIPQESL; listed as Homo sapiens) [compound 281]
++++ (>75% = ++++)	282 (KEFGIGDLVW; listed as Homo sapiens) [compound 282]
++ (>20% = ++)	283 (VEEEISRHY; listed as Homo sapiens) [compound 283]
+++ (>50 = +++)	284 (SQYPHTHTF; listed as Homo sapiens) [compound 284]
+++ (>50 = +++)	285 (AEHPDFSPCSF; listed as Homo sapiens) [compound 285]
++ (>20% = ++)	286 (DELSVGRY; listed as Homo sapiens) [compound 286]
++++ (>75% = ++++)	287 (REVSVVDIL; listed as Homo sapiens) [compound 287]
+++ (>50 = +++)	288 (TEHFLKKFF; listed as Homo sapiens) [compound 288]
+++ (>50 = +++)	290 (AECILSKRL; listed as Homo sapiens) [compound 290]
++ (>20% = ++)	291 (DEQLLLRF; listed as Homo sapiens) [compound 291]
++++ (>75% = ++++)	292 (HELALRQTV; listed as Homo sapiens) [compound 292]
+++ (>50 = +++)	293 (QEDEQLLLRF; listed as Homo sapiens) [compound 293]
++++ (>75% = ++++)	294 (EEWEWIQKL; listed as Homo sapiens) [compound 294]
+++ (>50 = +++)	295 (QELEQEVISL; listed as Homo sapiens) [compound 295]
++ (>20% = ++)	296 (AETIFIVRL; listed as Homo sapiens) [compound 296]
++ (>20% = ++)	297 (DEYLIPQQGFF; listed as Homo sapiens) [compound 297]

Peptide exchange (MHC class I binding score, peptide exchange yield)	Substance
+++ (>50 = +++)	298 (KEVASNSEL; listed as Homo sapiens) [compound 298]
+++ (>50 = +++)	299 (AEVQIARKL; listed as Homo sapiens) [compound 299]
++ (>20% = ++)	300 (KQTEATMTF; listed as Homo sapiens) [compound 300]
++++ (>75% = ++++)	301 (AERIMFSDL; listed as Homo sapiens) [compound 301]
++ (>20% = ++)	302 (EGEDAHLTQY; listed as Homo sapiens) [compound 302]
++ (>20% = ++)	303 (GEDAHLTQY; listed as Homo sapiens) [compound 303]
++++ (>75% = ++++)	304 (RELGFTEATGW; listed as Homo sapiens) [compound 304]
++++ (>75% = ++++)	305 (AEKNRRDAETW; listed as Homo sapiens) [compound 305]
+ (>10% = +)	306 (RRHPSFKRF; listed as Homo sapiens) [compound 306]
++++ (>75% = ++++)	307 (YEQLLKVVTW; listed as Homo sapiens) [compound 307]
+++ (>50 = +++)	308 (EEPKIDFRVY; listed as Homo sapiens) [compound 308]
++++ (>75% = ++++)	309 (SDDLRNVTW; listed as Homo sapiens) [compound 309]
+++ (>50 = +++)	310 (FELECPVKY; listed as Homo sapiens) [compound 310]
++++ (>75% = ++++)	311 (REKDLPNYNW; listed as Homo sapiens) [compound 311]
+++ (>50 = +++)	312 (KEWEREKAVSL; listed as Homo sapiens) [compound 312]
+++ (>50 = +++)	313 (EEINQGGRKY; listed as Homo sapiens) [compound 313]
++ (>20% = ++)	314 (EMREERKF; listed as Homo sapiens) [compound 314]
+++ (>50 = +++)	315 (MEQQSQEY; listed as Homo sapiens) [compound 315]
++ (>20% = ++)	316 (RLWPEPENW; listed as Homo sapiens) [compound 316]
++++ (>75% = ++++)	317 (TEFQQIINL; listed as Homo sapiens) [compound 317]
+++ (>50 = +++)	318 (SESSSFLKV; listed as Homo sapiens) [compound 318]
